Measured values taken from publication PMC9512702 (2022).
Like-named read-outs stand apart in the source and are kept apart here.

Experiments:
[1] = target: T1, mammalian expressed RBD (mRBD) of SARS-CoV-2 spike (SARS-CoV-2, UniProt P0DTC2 319-541); test: SPR
[2] = target: T1, mammalian expressed RBD (mRBD) of …; test: SPR; remark: listed apart in the source

Binder: DKEWILQKIYEAMRLLDELADAEASMRVSDAIYEFMKK (designed binder) [SIH-14]
- koff [1]: 0.00028 s⁻¹

Binder: DKEWILQKIYEEMRLLDELADAEASMRVSDEIYEFMKK (designed binder) [SIH-15]
- koff [2]: 0.00025 s⁻¹
